Bridge positions count the residues as written; N and C are the ends. Primed or numbered codes have the meaning given here. Ends that are not written are not given here. Ttds″ = trioxatridecan-succinamic acid linker

In one assay the target is T1, human DLL3 expressed on the surface of cells (human, UniProt Q9NYJ7 27-618).
T1 construct: Stably transfected CHO or HEK293 cells; also called huDLL3; hDLL3
T1 sequence: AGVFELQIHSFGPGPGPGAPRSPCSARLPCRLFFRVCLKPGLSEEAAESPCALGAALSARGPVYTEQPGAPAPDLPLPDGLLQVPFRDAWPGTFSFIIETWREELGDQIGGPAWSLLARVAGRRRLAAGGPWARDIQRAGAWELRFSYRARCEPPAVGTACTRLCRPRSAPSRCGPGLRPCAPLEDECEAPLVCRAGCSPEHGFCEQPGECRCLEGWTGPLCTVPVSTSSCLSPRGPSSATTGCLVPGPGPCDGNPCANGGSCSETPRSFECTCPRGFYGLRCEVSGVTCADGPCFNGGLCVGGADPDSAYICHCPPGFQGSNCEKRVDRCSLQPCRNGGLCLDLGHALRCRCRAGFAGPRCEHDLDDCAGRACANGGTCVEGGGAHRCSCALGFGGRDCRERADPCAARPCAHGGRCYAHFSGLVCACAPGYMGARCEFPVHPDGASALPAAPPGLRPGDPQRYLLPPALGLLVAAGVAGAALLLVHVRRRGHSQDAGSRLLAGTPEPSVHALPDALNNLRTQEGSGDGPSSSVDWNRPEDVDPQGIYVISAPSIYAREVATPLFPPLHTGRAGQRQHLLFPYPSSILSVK
Nature of the assay: phage cell ELISA/FACS on DLL3-expressing cells.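 Further: phages incubated 1 h at room temperature with cells overexpressing human DLL3, read by flow cytometry fluorescence, then fixed-cell ELISA with anti-M13-HRP at A370 nm, parental cells alongside.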
Procedure: The pools of phages were also screened for their binding to cells overexpressing human DLL3 on their surface. Cells were detached, counted and re-suspended at 1.8×10⁶ cell/ml in FACS buffer containing 2% FBS. Pre-blocked phages were then added to the cells and incubated for 1 hr at room temperature. […] Cells were then washed and re-suspended into FACS buffer. Fluorescence was acquired using a flow cytometer (FACS Canto/Becton Dickinson).
Phage clones with signal higher than four-fold above the background were further tested for their binding to DLL3 on the surface of cells expressing DLL3 by cell ELISA. Briefly, parental cells and cells overexpressing DLL3 were plated on 96 well plate the day before the assay. The cells were then fixed and washed before the addition of pre-blocked phages as previously described. The cells were then washed and anti-M13-HRP was added. The signal was measured using a Multiskan Ascent (Thermo) ELISA reader at A370 nm.
With AETVEFWGCNLDWYGWTCWW (not fully specified (bridges); cysteine pairing not given here, not shown: M13 pIII coat protein) [SEQ ID NO 69], the binding result is given as “binds”.
The same measure, in the same setting: for AETVEFYGCRGGDGEWTCVW (not shown: M13 pIII coat protein) [SEQ ID NO 54] the value was “binds”.
On the same count and under the same terms, as for AETVEFCRAYSNWFYIC (disulfide 7-17 (inferred); not fully specified (C-terminus), not shown: M13 pIII coat protein) [SEQ ID NO 76], the entry is “binds”; as for AETVEFETCWYLYGREWCVG (not fully specified (bridges); cysteine pairing not given here, not shown: M13 pIII coat protein) [SEQ ID NO 62], “binds”.
The same measure, in the same setting: for AETVEFDGCKGDWYEWTCWW (not shown: M13 pIII coat protein) [SEQ ID NO 53] the value was “binds”; for AETVEFYNCWYKMGWYVCWS (disulfide 9-18 (inferred); not fully specified (C-terminus), not shown: M13 pIII coat protein) [SEQ ID NO 75], “binds”.
With AETVEFWTCWETTEGYGCNW (not fully specified (bridges); cysteine pairing not given here, not shown: M13 pIII coat protein) [SEQ ID NO 72], the binding result is on record as “binds”.
Still for that read-out and setting: as for AETVEFYGCYGEQEQWTCLW (not shown: M13 pIII coat protein) [SEQ ID NO 59], the entry is “binds”; as for AETVEFDYCYGDVEEWTCVY (not shown: M13 pIII coat protein) [SEQ ID NO 55], “binds”.
Same read-out and setting: for AETVEFYGCETYSGGWTCLW (not shown: M13 pIII coat protein) [SEQ ID NO 56] the value was “binds”; for AETVEFYGCWWDAYGSTCTW (not fully specified (bridges); cysteine pairing not given here, not shown: M13 pIII coat protein) [SEQ ID NO 66], “binds”; for AETVEFYGCQYYGWDYTCAW (not shown: M13 pIII coat protein) [SEQ ID NO 60], “binds”.
Same read-out and setting: as for AETVEFYGCSVNADGWTCSW (not shown: M13 pIII coat protein) [SEQ ID NO 58], the entry is “binds”.
For the molecule AETVEFYGCKWDWKGWTCAW (not shown: M13 pIII coat protein) [SEQ ID NO 57], the binding result is “binds”.
On the same count and under the same terms, for AETVEFMRCYPWWYGPMCVR (not fully specified (bridges); cysteine pairing not given here, not shown: M13 pIII coat protein) [SEQ ID NO 63] the value was “binds”; for AETVEFWGCTGGAWEYTCWW (disulfide 9-18 (inferred); not fully specified (C-terminus), not shown: M13 pIII coat protein) [SEQ ID NO 73], “binds”.
On the same count and under the same terms, as for AETVEFYGCSVTWGGYTCTW (disulfide 9-18 (inferred); not fully specified (C-terminus), not shown: M13 pIII coat protein) [SEQ ID NO 74], the entry is “binds”; as for AETVEFWSCVVYGDNWTCSS (not fully specified (bridges); cysteine pairing not given here, not shown: M13 pIII coat protein) [SEQ ID NO 70], “binds”.
On the same count and under the same terms, for AETVEFYGCWGNYNDYTCSW (not shown: M13 pIII coat protein) [SEQ ID NO 61] the value was “binds”; for AETVEFWTCWTVYGKSSCWD (not fully specified (bridges); cysteine pairing not given here, not shown: M13 pIII coat protein) [SEQ ID NO 65], “binds”; for AETVEFWSCQLGSGWWTCAW (not fully specified (bridges); cysteine pairing not given here, not shown: M13 pIII coat protein) [SEQ ID NO 71], “binds”.
As for AETVEFWGCLGMGYDRTCWW (not fully specified (bridges); cysteine pairing not given here, not shown: M13 pIII coat protein) [SEQ ID NO 64], the binding result was “binds”.
Regarding AETVEFRYCTHTQTYVQCQD (not fully specified (bridges); cysteine pairing not given here, not shown: M13 pIII coat protein) [SEQ ID NO 68], the binding result is reported as “binds”.
Same read-out and setting: as for AETVEFYGCDLWKGWTVCGY (not fully specified (bridges); cysteine pairing not given here, not shown: M13 pIII coat protein) [SEQ ID NO 67], the entry is “binds”.

A further assay addresses T2, recombinant DLL3 ectodomain (rhDLL3-Fc) (human, UniProt Q9NYJ7 27-492, biotinylated (NHS-LC-LC-biotin) in the BLI and SPR assays).
T2 construct: also called rDLL3-Fc; recombinant human DLL3 (rDLL3); not shown: Fc part
T2 sequence: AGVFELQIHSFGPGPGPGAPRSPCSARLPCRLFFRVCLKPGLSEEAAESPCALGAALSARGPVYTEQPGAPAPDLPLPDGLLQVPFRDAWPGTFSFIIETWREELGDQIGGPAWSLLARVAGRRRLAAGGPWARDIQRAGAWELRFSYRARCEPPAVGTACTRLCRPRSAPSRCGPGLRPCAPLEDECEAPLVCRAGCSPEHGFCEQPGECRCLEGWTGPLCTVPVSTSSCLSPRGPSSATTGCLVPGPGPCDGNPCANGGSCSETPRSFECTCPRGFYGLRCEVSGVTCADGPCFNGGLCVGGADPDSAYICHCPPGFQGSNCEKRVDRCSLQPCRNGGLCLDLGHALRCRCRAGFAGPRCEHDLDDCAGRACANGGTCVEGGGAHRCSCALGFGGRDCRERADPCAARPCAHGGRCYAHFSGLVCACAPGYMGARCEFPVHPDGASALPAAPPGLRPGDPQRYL
Kind of assay: SPR (Biacore), biotinylated rhDLL3-Fc on SA chip.
Regarding Ac-AETVEFWWCNGNSENWTCTWGG-{Ttds-K(PEG4-DBCO)-NH2} (disulfide 9-18 (inferred), also called PspSP1462) [PepSP1462], the Kd was 6.3 nM, the koff was found to be 0.0014 s⁻¹ and the on-rate (kon) was found to be 230000 M⁻¹ s⁻¹.
The like results for Ac-AETVEFWWCNGNSENWTCTWGG-{Ttds″-K(PEG3)} (disulfide 9-18 (inferred); also: dimer of two copies, carries PEG4-DBCO, also called PspSP1487) [PepSP1487] were, in that order, 5.5 nM, 0.00042 s⁻¹ and 76000 M⁻¹ s⁻¹.

A further assay addresses T2, recombinant DLL3 ectodomain (rhDLL3-Fc). Nature of the assay: phage ELISA on rDLL3-Fc.
Procedure: The pools of phages obtained after each round of selection were tested by Phage-ELISA for their binding to rDLL3-Fc and counter-screened on hIgG-Fc. Briefly, proteins were immobilized on NUNC-Maxisorp ELISA plates. Then the plates were washed and blocked. 100 μl of pre-blocked phages were added to the blocked plate and incubated for 1 hr at room temperature. Anti-M13 HRP conjugated mAb were added and the plates were read on a Multiskan Ascent (Thermo) Elisa reader at A370 nm after the addition of TMB (Sigma).
Regarding AETVEFWGCNLDWYGWTCWW (not fully specified (bridges); cysteine pairing not given here, not shown: M13 pIII coat protein) [SEQ ID NO 69], the binding result is given as “binds”.
Same read-out and setting: for AETVEFYGCRGGDGEWTCVW (not shown: M13 pIII coat protein) [SEQ ID NO 54] the value was “binds”.
In the case of AETVEFCRAYSNWFYIC (disulfide 7-17 (inferred); not fully specified (C-terminus), not shown: M13 pIII coat protein) [SEQ ID NO 76], the binding result is recorded as “binds”.
The same measure, in the same setting: as for AETVEFETCWYLYGREWCVG (not fully specified (bridges); cysteine pairing not given here, not shown: M13 pIII coat protein) [SEQ ID NO 62], the entry is “binds”.
Consider AETVEFDGCKGDWYEWTCWW (not shown: M13 pIII coat protein) [SEQ ID NO 53], for which the binding result is “binds”.
On the same count and under the same terms, as for AETVEFYNCWYKMGWYVCWS (disulfide 9-18 (inferred); not fully specified (C-terminus), not shown: M13 pIII coat protein) [SEQ ID NO 75], the entry is “binds”; as for AETVEFWTCWETTEGYGCNW (not fully specified (bridges); cysteine pairing not given here, not shown: M13 pIII coat protein) [SEQ ID NO 72], “binds”.
The same measure, in the same setting: as for AETVEFYGCYGEQEQWTCLW (not shown: M13 pIII coat protein) [SEQ ID NO 59], the entry is “binds”; as for AETVEFDYCYGDVEEWTCVY (not shown: M13 pIII coat protein) [SEQ ID NO 55], “binds”.
On the same count and under the same terms, for AETVEFYGCETYSGGWTCLW (not shown: M13 pIII coat protein) [SEQ ID NO 56] the value was “binds”; for AETVEFYGCWWDAYGSTCTW (not fully specified (bridges); cysteine pairing not given here, not shown: M13 pIII coat protein) [SEQ ID NO 66], “binds”.
For AETVEFYGCQYYGWDYTCAW (not shown: M13 pIII coat protein) [SEQ ID NO 60], the binding result was “binds”.
Take AETVEFYGCSVNADGWTCSW (not shown: M13 pIII coat protein) [SEQ ID NO 58]: the binding result is reported as “binds”.
For AETVEFYGCKWDWKGWTCAW (not shown: M13 pIII coat protein) [SEQ ID NO 57], the binding result is “binds”.
AETVEFMRCYPWWYGPMCVR (not fully specified (bridges); cysteine pairing not given here, not shown: M13 pIII coat protein) [SEQ ID NO 63]: the binding result is “binds”.
The same measure, in the same setting: for AETVEFWGCTGGAWEYTCWW (disulfide 9-18 (inferred); not fully specified (C-terminus), not shown: M13 pIII coat protein) [SEQ ID NO 73] the value was “binds”; for AETVEFYGCSVTWGGYTCTW (disulfide 9-18 (inferred); not fully specified (C-terminus), not shown: M13 pIII coat protein) [SEQ ID NO 74], “binds”.
Still for that read-out and setting: for AETVEFWSCVVYGDNWTCSS (not fully specified (bridges); cysteine pairing not given here, not shown: M13 pIII coat protein) [SEQ ID NO 70] the value was “binds”.
Still for that read-out and setting: for AETVEFYGCWGNYNDYTCSW (not shown: M13 pIII coat protein) [SEQ ID NO 61] the value was “binds”.
Take AETVEFWTCWTVYGKSSCWD (not fully specified (bridges); cysteine pairing not given here, not shown: M13 pIII coat protein) [SEQ ID NO 65]: the binding result is on record as “binds”.
Turning to AETVEFWSCQLGSGWWTCAW (not fully specified (bridges); cysteine pairing not given here, not shown: M13 pIII coat protein) [SEQ ID NO 71], the binding result is on record as “binds”.
Same read-out and setting: as for AETVEFWGCLGMGYDRTCWW (not fully specified (bridges); cysteine pairing not given here, not shown: M13 pIII coat protein) [SEQ ID NO 64], the entry is “binds”; as for AETVEFRYCTHTQTYVQCQD (not fully specified (bridges); cysteine pairing not given here, not shown: M13 pIII coat protein) [SEQ ID NO 68], “binds”; as for AETVEFYGCDLWKGWTVCGY (not fully specified (bridges); cysteine pairing not given here, not shown: M13 pIII coat protein) [SEQ ID NO 67], “binds”.
